Experimental data taken from the supplement of paper PMC12042874.
± gives the uncertainty stated by the source.

assay: amyloid nucleation score (Sup35N fusion, yeast selection) (log enrichment); library NNK2; higher = more nucleation; inactive = no reads after selection
Summary of the method: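 Plasmid inserts were Illumina-sequenced at input and output from psi-negative yeast expressing Sup35N fused to peptides of 20 random codons. The yeast were induced with 100 μM copper sulfate for 24 hours and grown 7 days at 30°C on medium lacking adenine and uracil, and sequences with under 100 input reads were excluded. Nucleation score is the DiMSum log enrichment of output over input reads, centred on the mode score of non-aggregating sequences.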

Row | Substance | amyloid nucleation score
1 | LHSYWH | 0.121 ± 0.2
2 | IESSVCPGRRPGLLPTLKAG | 0.901 ± 0.31
3 | FDPLTFFGHRYCMQDMQLSD | -0.027 ± 0.32
4 | YMSYNYGTVLEFLELPDSHR | 1.56 ± 0.11
5 | RGSGSVMNSGYEAASRRLGG | -0.12 ± 0.46
6 | TSGLAGGDWNWAS | 0.314 ± 0.64
7 | WVVHLSSGIRNF | inactive
8 | YMKTN | -0.38 ± 0.32
9 | CSCDGWVCPCSACIC | 8.708 ± 0.035
10 | RLLFVWV | 4.12 ± 0.087
11 | KSCGRLAAEYSPPRMACGHD | 1.18 ± 0.41
12 | FKWALFG | inactive
13 | CEFLMLFREFLDW | 4.59 ± 0.055
14 | SNEPIGTASLHDYVGPRVST | -0.332 ± 0.44
15 | SGVLHRCEIPVLRACRLLL | 0.425 ± 0.37
16 | QCSHI | -0.193 ± 0.28
17 | DAFWCYVDTLYMNRPSQ | 0.988 ± 0.29
18 | WFMSIMSKYCRVSF | -0.149 ± 0.79
19 | LWIVMVVRTTQQTYATMGHG | 0.955 ± 0.29
20 | IVKPSRKLKTQGCMKFNAWL | -0.284 ± 0.61
21 | TNKYFCTFGAHGARDLQMHV | inactive
22 | YFGVLFPVMNWQLSWKNIYW | inactive
23 | NCPPFHRMYLTSIIGSLSDD | -0.306 ± 0.49
24 | HGDNFSEVATTFNCMMLLNV | -0.243 ± 1.1
25 | WRYSRKMDRPFYRAMCYVNI | 1.68 ± 0.1

Row | Substance | amyloid nucleation score
26 | YPPWVSGVMIVMGHLRRCSA | 1.93 ± 0.43
27 | GVNSLVERFNLWYVLGERTF | -0.35 ± 0.33
28 | GWVLI | -0.994 ± 1.1
29 | FYFCF | 7.59 ± 0.03
30 | RVTYDFFILWC | 4.465 ± 0.044
31 | YMYFVFIRSSKSVMIKDVHC | inactive
32 | VDLYQVWSSCPVFVLWGYSC | 0.072 ± 0.79
33 | PMCYSVSSNLWVTTLQWGYL | 2.56 ± 0.14
34 | MRGGLGV | 0.492 ± 0.49
35 | QGRLSPY | inactive
36 | DTRFEVNAFTIGNRYATNGS | -0.869 ± 0.41
37 | DTGSGAPVIKYCVAVPRSFT | 0.306 ± 0.57
38 | MEGITRFSPPKNSEYIVLAG | -0.613 ± 0.44
39 | AFRVNWYDQNRYVEVKG | 0.292 ± 0.4
40 | FMEGTRHCGKYFSC | 0.938 ± 0.26
41 | GSPIESGVFNANLWPYDAYG | -0.216 ± 0.41
42 | VRNKMSGPLMFIIGLDLSCN | inactive
43 | TFPSISTFARSLFFVYQVYP | -1.13 ± 1.1
44 | RRLKLRINMVFLEYGFKSKF | 3.8 ± 0.046
45 | TDVIYYGYLSRRLQVYVLPS | -1.55 ± 1.1
46 | PVAQTLAVTFNY | 1.62 ± 0.23
47 | WDVIELF | -1.4 ± 1.1
48 | WLFSVSISGREDMMWSGLLE | 0.061 ± 0.4
49 | GLRLFKMKDFC | 2.14 ± 0.21
50 | TYGGEV | 0.251 ± 0.31

Row | Substance | amyloid nucleation score
51 | DLSCGGRLKMNHYKA | -0.686 ± 0.76
52 | VCSFVCNLCSLCEIEFWLIA | 0.521 ± 0.26
53 | EGRHNV | inactive
54 | TARLLSPQ | -0.376 ± 0.76
55 | YPYDWSLLVLELVRQILSMG | 0.704 ± 0.47
56 | QRVSRYNLLRARPGKIAEHF | inactive
57 | ESMGGEYQGGVFVG | 0.448 ± 0.38
58 | GMLMIVGARSRDVPYYGRCD | 0.004 ± 1.1
59 | PPHCTGHLV | 0.183 ± 1
60 | YFPPGDA | -0.47 ± 0.39
61 | MDTVMRLYVCVCCRSFLRIG | 1.62 ± 0.35
62 | CHRLVLQLI | inactive
63 | YNTPIIPAWVFSFHQWPEAF | -1.6 ± 1.1
64 | AAIRH | -0.328 ± 0.49
65 | CVICHYHLCLRQCIWSG | 5.373 ± 0.033
66 | ILADINL | inactive
67 | LKGGIFRV | inactive
68 | LFIYLGDQSSNKVKPTHFRE | -0.497 ± 0.33
69 | NMGIRRFKFYIVNA | -0.965 ± 0.78
70 | DHIVYTLGCWGLRSPFKPLL | 0.026 ± 1.1
71 | PRVNILWYNRMLYAWFRPVV | -1.21 ± 0.55
72 | LFSMSL | -1.27 ± 1
73 | ANCATSVLCCSGCV | 0.878 ± 0.14
74 | QMTLVHK | 1.67 ± 0.39
75 | GSFENSTRTYVSIIRR | 4.73 ± 0.045

Row | Substance | amyloid nucleation score
76 | LNQSDLLADFLVLI | 0.474 ± 0.31
77 | QGSKDRSYINKYRDRFCLTD | -0.304 ± 1.1
78 | YHLGSSLLLCI | inactive
79 | GYDIISQKLGIQSYQKCTFI | -1.86 ± 0.62
80 | TFRRTVNGNMRGQMPTNWAF | 0.537 ± 0.22
81 | KNLVDWVYYPPMH | -1.23 ± 0.62
82 | VGSNKGAIIGLMVGGMVVIA | 2.33 ± 0.21
83 | CIAYRDSTAYHNMTRGTAMV | 3.72 ± 0.043
84 | CAFRASFLLT | 0.04 ± 0.34
85 | YRFKIMCLVSPHFV | 0.736 ± 0.6
86 | FTIIGAAIKRVVVLTVSPYY | inactive
87 | SHYTMALSRDIGYGDITKSD | -0.675 ± 1.1
88 | DSGRCFSFKWFCYFQHHHEV | 2.18 ± 0.17
89 | SYIICELNQLLGFKNWHKTC | 2.83 ± 0.068
90 | HARVKLVIILLTLREGGMFW | -0.108 ± 0.62
91 | VPSGSLD | inactive
92 | ENKILMGAWEVFWTYSEHPW | inactive
93 | RLLFCGWLTN | -1 ± 1
94 | NFYKEFGGMIAYLDKILREE | -1.13 ± 0.55
95 | LNLQSLTSHTVKGL | 0.147 ± 0.54
96 | MIDLTLIFLFLVYSD | -0.827 ± 0.62
97 | YYSYYWQTNHID | -1.68 ± 0.62
98 | NKSLFMKFCVSLFRLGSYVT | -0.618 ± 0.48
99 | LYMYKNAKVLVSHLYYWYNY | inactive
100 | FGFLPSVIWEASDIGSDCLE | 0.072 ± 1.1

Row | Substance | amyloid nucleation score
101 | KYMRLSSPAGSAVPLWTLYL | 0.148 ± 1
102 | GPLFHTTRLRDNHM | 3.11 ± 0.11
103 | CFLTTYNRNYNLMRVFSIFR | 1.43 ± 0.21
104 | IARFSKKTSVSMGTRCAT | 0.122 ± 0.3
105 | YMRSWEVLNMCGVSWLCIFA | 7.419 ± 0.064
106 | PSMQVVKRVINFG | inactive
107 | EDLYFTTGMLAKKCGPQGMG | 5.04 ± 0.069
108 | KRVFAKVTVMDHSNSG | inactive
109 | SCCFSMGGPVNVVQSSRMVR | -0.781 ± 0.55
110 | CGMRTEMTLGCLILAAGTWT | 0.111 ± 0.5
111 | VTLRTANGDKWKTPASNI | inactive
112 | VYNTFLREFHS | 1.99 ± 0.13
113 | WHGRCWTSAKLAYRTRKTMC | 1.86 ± 0.17
114 | GFRNCWKWPHWVLAPMLYNS | 0.007 ± 1.1
115 | LLTRLKGGPPARAPHSTSGL | 1.91 ± 0.13
116 | EHVVSSRRLYLQGDILLNSQ | inactive
117 | MYLPMVDVIEVSYSVNLERG | -0.311 ± 0.32
118 | EQRGLASCLTIHHSRWCYTK | 0.025 ± 0.33
119 | FSLHKCNVRLGISNGT | -0.276 ± 0.48
120 | CNVSSELCYYGMSTYIKNPM | -0.947 ± 0.32
121 | PVKRQGSSAANVPVVW | 0.444 ± 0.44
122 | IGCSWSKQELVISNLLVFLF | -1.52 ± 0.62
123 | LKVGVIDNI | -1.2 ± 0.61
124 | HSLSWKCV | 0.346 ± 0.74
125 | NVQRI | -0.399 ± 0.55

Row | Substance | amyloid nucleation score
126 | PFSCITRLQ | 2.48 ± 0.1
127 | DSVGMVRTLVWDWGQATNGR | 0.953 ± 0.51
128 | MGVLWMFFSF | 0.03 ± 0.4
129 | SFHIVKDYNSDMYYFFNELV | inactive
130 | SVADGAHFCYYNLYFGGFVY | 4.24 ± 0.081
131 | RVFKDTRRIG | -0.545 ± 1
132 | AIASLTRTFSA | 0.167 ± 0.42
133 | LFSYWSVYSGLREVGPYCMV | 0.79 ± 0.21
134 | FDALRIFVPVPYRRWSSR | 1.52 ± 0.28
135 | FEGQA | -1.8 ± 0.54
136 | LQRRCLINKNTGTPRLSN | -0.358 ± 1
137 | RSHATFRSSSLIPGVEV | 0.409 ± 0.23
138 | YMCRYGFMDNFCAVHVSFVE | 5.645 ± 0.055
139 | MVKSHLMTKFCD | -0.394 ± 0.34
140 | CAISYSFPGIFRQWCVFPDG | -0.593 ± 0.33
141 | SDRMELWKNESRLYIGMAVR | 0.451 ± 0.49
142 | DLGAFRLRR | -2.19 ± 0.54
143 | NRMEYV | 1.02 ± 0.23
144 | AADSRYGGNGCFRSMLFALI | 0.817 ± 0.45
145 | SNVLFLVLHRGRVKAVSRNE | -0.783 ± 1
146 | LVFDRFDGNFNRSMSVAVRV | -0.211 ± 0.39
147 | GTRYDT | 0.468 ± 0.32
148 | NSGHYFKDKSWCQMRS | 0.615 ± 0.66
149 | YLTISIAGVVLNLFVIACIV | 0.757 ± 0.4
150 | SWMNYRCRQDMSCCK | 0.908 ± 0.47

Row | Substance | amyloid nucleation score
151 | FVFIYYIVLQHATANHSMQA | 4.921 ± 0.044
152 | RNSSL | 0.495 ± 0.48
153 | SFKFFTVQF | 6.66 ± 0.088
154 | KLHVGNCSFSKPSPAQAGSL | 0.34 ± 0.29
155 | YRLGGWEVNWRLDFYHRRGM | 1.21 ± 0.32
156 | NVVTGVASILWGQDHNKSLV | 0.641 ± 0.74
157 | NQALTTSPHSYIRFSCTCMF | 3.89 ± 0.14
158 | VWLSFRVYLVMTSVLVILNC | 1.13 ± 0.11
159 | VLSDL | -1.18 ± 0.75
160 | DSLEGVSCSLMSLSTLTGEC | 0.143 ± 0.54
161 | DDSMHWFYLLGWIPVGSKGG | inactive
162 | LSHLISFRLTTTSNFRFWDH | 3.15 ± 0.093
163 | LQVRSDSMNGFNW | -0.61 ± 1.1
164 | YMSLNKTAVTCVCHM | -0.425 ± 0.5
165 | MFAVLTGSIFKWKWWTIGFR | -0.265 ± 0.28
166 | HPDDTMKFSSRTHITTQTDR | 0.908 ± 0.52
167 | FKKAMHKPKSWAFSEKGRTN | -1.27 ± 0.61
168 | WIFSPGLMDFVEHDNLEWIA | 0.67 ± 0.44
169 | NRYTLDVVNFSNNYSISSNR | 1.76 ± 0.12
170 | PILLMSTVTRRLVRCNVAFK | 0.391 ± 0.51
171 | LGSVLLRFRH | -0.469 ± 0.23
172 | KSRVVMRTHAHSALWKWPGR | 1.64 ± 0.28
173 | AQFVKWAVNLLGSRYSWYEQ | inactive
174 | YFVSSC | -1.23 ± 0.35
